Drawing on US20260109758A1 (BIOSION, published 2026), this text covers EC50 for two molecules.

In assay [1] the target is T1, human IL4Rα expressed on 293F-IL4Rα cell surface (human, UniProt P24394 26-825).
T1 construct: whole, on cells; also called human IL4Rα-expressing cells; cell surface IL4R
Nature of the assay: flow cytometry on 293F-IL4Rα cells, PE anti-human IgG Fc.

The target in assay [2] is T2, recombinant human IL4Rα-his (human, UniProt P24394 26-231, limits assumed, biotin-labeled in the capture ELISA).
T2 construct: In-house made; not shown: His tag at the C-terminus
Nature of the assay: capture ELISA: antibody captured on anti-human IgG Fc F(ab')2, biotin human IL4Rα-his, SA-HRP.

B1: BSI-502-007 (bispecific antibody, human IgG1, kappa)
heavy: QVQLVQSGAEVKKPGASVKVSCKASGYTFTTYWMHWVRQAPGQGLEWMGVIDPSDSDTTYNQKFKGRVTMTRDTSTSTVYMELSSLRSEDTAVYYCTRSLDGYYDYWGQGTLVTVSSGGGGSGGGGSGGGGSGGGGSDIQMTQSPSSLSASVGDRVTITCRPTENIYSYLAWYQQKPGKAPKLLIYFARTLAEGVPSRFSGSGSGTDFTLTISSLQPEDFATYYCQHHYGTPWTFGGGTKVEIKGGGGSGGGGSEVQLVESGGGLVQPGGSLRLSCAASGFTFSTYGMSWVRQAPGKGLVWVATINSNGGSTSYPDSVKGRFTISRDNAKNTLYLQMNSLRAEDTAVYYCARFFRFRNAMDYWGQGTLVTVSSASTKGPSVFPLAPSSKSTSGGTAALGCLVKDYFPEPVTVSWNSGALTSGVHTFPAVLQSSGLYSLSSVVTVPSSSLGTQTYICNVNHKPSNTKVDKKVEPKSCDKTHTCPPCPAPEAQGGPSVFLFPPKPKDTLYITREPEVTCVVVDVSHEDPEVKFNWYVDGVEVHNAKTKPREEQYNSTYRVVSVLTVLHQDWLNGKEYKCQVSNKALPAPIEKTISKAKGQPREPQVYTLPPSRDELTKNQVSLTCLVKGFYPSDIAVEWESNGQPENNYKTTPPVLDSDGSFFLYSKLTVDKSRWQQGNVFSCSVMHEALHNHYTQKSLSLSPG
light: DIQMTQSPSSLSASVGDRVTITCRTSENIYSYLAWYQQKPGKAPKFLVYNAKTLAEGVPSRFSGSGSGTDFTLTISSLQPEDFATYYCQHYYGPPTWTFGQGTKVEIKRTVAAPSVFIFPPSDEQLKSGTASVVCLLNNFYPREAKVQWKVDNALQSGNSQESVTEQDSKDSTYSLSSTLTLSKADYEKHKVYACEVTHQGLSSPVTKSFNRGEC
notes: huC2C1A1A1-V15 IgG with an anti-TSLP scFv (VH-VL) at the N-terminus of the heavy chain; AQQ and YTE already stand in the entry
B1: the figures for the EC50 in assay [1] and in assay [2] were 0.188 nM and 0.0272 nM, respectively.

B2: BSI-502-008 (bispecific antibody, human IgG1, kappa)
heavy: DIQMTQSPSSLSASVGDRVTITCRPTENIYSYLAWYQQKPGKAPKLLIYFARTLAEGVPSRFSGSGSGTDFTLTISSLQPEDFATYYCQHHYGTPWTFGGGTKVEIKGGGGSGGGGSGGGGSGGGGSQVQLVQSGAEVKKPGASVKVSCKASGYTFTTYWMHWVRQAPGQGLEWMGVIDPSDSDTTYNQKFKGRVTMTRDTSTSTVYMELSSLRSEDTAVYYCTRSLDGYYDYWGQGTLVTVSSGGGGSGGGGSEVQLVESGGGLVQPGGSLRLSCAASGFTFSTYGMSWVRQAPGKGLVWVATINSNGGSTSYPDSVKGRFTISRDNAKNTLYLQMNSLRAEDTAVYYCARFFRFRNAMDYWGQGTLVTVSSASTKGPSVFPLAPSSKSTSGGTAALGCLVKDYFPEPVTVSWNSGALTSGVHTFPAVLQSSGLYSLSSVVTVPSSSLGTQTYICNVNHKPSNTKVDKKVEPKSCDKTHTCPPCPAPEAQGGPSVFLFPPKPKDTLYITREPEVTCVVVDVSHEDPEVKFNWYVDGVEVHNAKTKPREEQYNSTYRVVSVLTVLHQDWLNGKEYKCQVSNKALPAPIEKTISKAKGQPREPQVYTLPPSRDELTKNQVSLTCLVKGFYPSDIAVEWESNGQPENNYKTTPPVLDSDGSFFLYSKLTVDKSRWQQGNVFSCSVMHEALHNHYTQKSLSLSPG
light: B1 light
notes: huC2C1A1A1-V15 IgG with an anti-TSLP scFv (VL-VH) at the N-terminus of the heavy chain; AQQ and YTE already stand in the entry
For the molecule B2, the EC50 worked out at 0.176 nM in assay [1] and 0.0323 nM in assay [2].

The EC50 is the concentration needed to bring the measured effect to its halfway point.
